Measurements taken from IntAct's records for PubMed 11163211.

B1: G2/mitotic-specific cyclin cig2 (Schizosaccharomyces pombe (strain ATCC 38366 / 972)), P36630 (parent)
chain: MALYSISKPVGSKINKHSYQDENTLVGKQALSKGTEKTKLSTNFEINLPRRTVLSDVSNVGKNNADEKDTKKAKRSFDESNLSTNEEADKPVESKFVKKLKVYSKNADPSVETLQKDRVSNVDDHLSSNPLMAEEYAPEIFEYIRKLDLKCLPNPKYMDQQKELTWKMREILNEWLVEIHSNFCLMPETLYLAVNIIDRFLSRRSCSLSKFQLTGITALLIASKYEEVMCPSIQNFVYMTDGAFTVEDVCVAERYMLNVLNFDLSYPSPLNFLRKISQAEGYDAQTRTLGKYLTEIYLFDHDLLRYPMSKIAAAAMYLSRRLLRRGPWTPKLVESSGGYEEHELKEIAYIMLHYHNKPLEHKAFFQKYSSKRFLKASIFVHQLVRQRYSVNRTDDDDLQSEPSSSLTNDGH

Variants of: B1
Settings: with cdk1_schpo cdc2, P04551
cdk1_schpo cdc2, P04551, sequence (P04551 whole entry): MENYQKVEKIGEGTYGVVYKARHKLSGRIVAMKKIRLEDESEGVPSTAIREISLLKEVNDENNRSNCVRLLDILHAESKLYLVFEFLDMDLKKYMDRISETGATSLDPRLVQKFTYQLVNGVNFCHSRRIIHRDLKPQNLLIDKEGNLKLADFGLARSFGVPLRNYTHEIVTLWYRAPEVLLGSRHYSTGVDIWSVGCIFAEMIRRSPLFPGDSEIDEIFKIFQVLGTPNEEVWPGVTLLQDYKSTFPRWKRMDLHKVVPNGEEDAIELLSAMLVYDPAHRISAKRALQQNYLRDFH

| effect of a mutation on the interaction | Variant |
| --- | --- |
| disrupting interaction | R169A;E170A;I171A |
